Laboratory results from publication PMC6101539 (Nucleic Acids Research, 2018).

T1: Bacillus subtilis RarA (replication associated recombination protein A) (B. subtilis, UniProt O34528 1-421)
T1 sequence (looked up): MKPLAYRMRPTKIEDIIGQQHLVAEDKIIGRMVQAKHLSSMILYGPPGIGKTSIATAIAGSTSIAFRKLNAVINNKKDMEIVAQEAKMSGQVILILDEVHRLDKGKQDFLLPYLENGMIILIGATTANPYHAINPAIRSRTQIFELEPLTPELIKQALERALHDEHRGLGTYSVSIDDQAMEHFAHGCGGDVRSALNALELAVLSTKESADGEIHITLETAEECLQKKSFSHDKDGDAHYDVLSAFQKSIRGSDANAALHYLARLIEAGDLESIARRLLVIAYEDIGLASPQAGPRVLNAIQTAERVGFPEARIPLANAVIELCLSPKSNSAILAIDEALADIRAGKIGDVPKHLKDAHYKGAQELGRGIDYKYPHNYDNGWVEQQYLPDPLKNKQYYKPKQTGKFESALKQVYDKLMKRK

T2: Bacillus subtilis RarA K51A (Walker A motif mutant) (B. subtilis, UniProt O34528 1-421, K51A)
T2 sequence (looked up): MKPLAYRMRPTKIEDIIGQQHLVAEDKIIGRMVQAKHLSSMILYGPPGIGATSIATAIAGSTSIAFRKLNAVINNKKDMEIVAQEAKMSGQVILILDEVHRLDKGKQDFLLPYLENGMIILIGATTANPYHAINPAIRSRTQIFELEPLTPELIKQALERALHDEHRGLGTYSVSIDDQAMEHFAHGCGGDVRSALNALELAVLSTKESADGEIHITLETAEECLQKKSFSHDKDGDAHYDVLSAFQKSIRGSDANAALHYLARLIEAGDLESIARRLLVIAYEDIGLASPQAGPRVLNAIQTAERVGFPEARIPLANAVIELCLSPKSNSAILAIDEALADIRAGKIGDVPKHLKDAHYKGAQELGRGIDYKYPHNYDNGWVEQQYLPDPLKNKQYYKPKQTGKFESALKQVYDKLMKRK

T3: RarA K51A;SsbA (Bacillus subtilis;Bacillus subtilis, UniProt O34528;P37455 1-421;1-172, K51A|)
T3 sequence 1: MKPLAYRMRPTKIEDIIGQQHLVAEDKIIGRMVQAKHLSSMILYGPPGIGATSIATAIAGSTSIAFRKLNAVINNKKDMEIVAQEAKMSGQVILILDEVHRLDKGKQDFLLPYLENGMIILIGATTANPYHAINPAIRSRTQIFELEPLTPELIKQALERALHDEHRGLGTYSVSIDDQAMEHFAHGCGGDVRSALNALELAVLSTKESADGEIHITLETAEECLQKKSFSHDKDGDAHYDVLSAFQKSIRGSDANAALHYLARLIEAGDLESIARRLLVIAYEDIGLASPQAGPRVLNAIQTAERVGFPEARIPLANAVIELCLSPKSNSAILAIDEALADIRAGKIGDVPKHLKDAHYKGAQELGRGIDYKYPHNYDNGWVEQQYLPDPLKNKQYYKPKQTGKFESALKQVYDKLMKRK
T3 sequence 2: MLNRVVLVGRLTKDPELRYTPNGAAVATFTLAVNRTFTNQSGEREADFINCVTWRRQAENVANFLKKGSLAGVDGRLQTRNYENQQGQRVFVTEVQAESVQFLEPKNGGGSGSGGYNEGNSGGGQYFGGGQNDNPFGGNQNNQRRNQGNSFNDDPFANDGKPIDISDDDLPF

T4: RarA;SsbA (Bacillus subtilis;Bacillus subtilis, UniProt O34528;P37455 1-421;1-172, |)
T4 sequence 1: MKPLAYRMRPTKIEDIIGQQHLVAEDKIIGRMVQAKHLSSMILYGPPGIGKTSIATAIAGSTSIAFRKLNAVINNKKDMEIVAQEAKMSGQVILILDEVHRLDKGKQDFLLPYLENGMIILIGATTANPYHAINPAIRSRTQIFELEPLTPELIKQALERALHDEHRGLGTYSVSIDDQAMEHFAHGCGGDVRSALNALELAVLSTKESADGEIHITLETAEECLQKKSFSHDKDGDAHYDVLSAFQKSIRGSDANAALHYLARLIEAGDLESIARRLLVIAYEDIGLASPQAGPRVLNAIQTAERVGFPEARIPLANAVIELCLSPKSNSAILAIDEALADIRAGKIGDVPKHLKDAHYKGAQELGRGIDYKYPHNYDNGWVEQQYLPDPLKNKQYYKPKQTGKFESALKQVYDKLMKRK
T4 sequence 2: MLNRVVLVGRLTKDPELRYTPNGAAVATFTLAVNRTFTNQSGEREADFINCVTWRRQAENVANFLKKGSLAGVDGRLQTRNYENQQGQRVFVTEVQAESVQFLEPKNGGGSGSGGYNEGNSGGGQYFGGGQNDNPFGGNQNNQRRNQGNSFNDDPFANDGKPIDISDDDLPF

T5: SsbB (Bacillus subtilis, UniProt C0SPB6 1-113)
T5 sequence: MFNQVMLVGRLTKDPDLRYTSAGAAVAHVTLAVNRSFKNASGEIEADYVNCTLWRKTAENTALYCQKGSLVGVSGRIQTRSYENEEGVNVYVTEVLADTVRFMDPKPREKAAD

T6: RarA (Bacillus subtilis, UniProt O34528 1-421)
T6 sequence: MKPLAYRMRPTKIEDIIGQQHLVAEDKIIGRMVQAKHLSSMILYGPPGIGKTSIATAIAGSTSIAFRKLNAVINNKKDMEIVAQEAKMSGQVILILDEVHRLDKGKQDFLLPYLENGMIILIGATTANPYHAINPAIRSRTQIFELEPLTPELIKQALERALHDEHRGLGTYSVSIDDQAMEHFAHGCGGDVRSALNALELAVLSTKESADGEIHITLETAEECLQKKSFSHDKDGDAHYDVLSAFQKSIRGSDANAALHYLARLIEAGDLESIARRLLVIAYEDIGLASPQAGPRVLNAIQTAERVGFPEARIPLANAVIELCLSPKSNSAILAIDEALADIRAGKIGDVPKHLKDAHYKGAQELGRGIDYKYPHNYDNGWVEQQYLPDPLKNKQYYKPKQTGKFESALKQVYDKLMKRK

T7: RarA;SsbBA chimera (SsbB*) (Bacillus subtilis;Bacillus subtilis, UniProt O34528;C0SPB6 1-421;1-113+P37455:164-172, |internal_change)
T7 sequence 1: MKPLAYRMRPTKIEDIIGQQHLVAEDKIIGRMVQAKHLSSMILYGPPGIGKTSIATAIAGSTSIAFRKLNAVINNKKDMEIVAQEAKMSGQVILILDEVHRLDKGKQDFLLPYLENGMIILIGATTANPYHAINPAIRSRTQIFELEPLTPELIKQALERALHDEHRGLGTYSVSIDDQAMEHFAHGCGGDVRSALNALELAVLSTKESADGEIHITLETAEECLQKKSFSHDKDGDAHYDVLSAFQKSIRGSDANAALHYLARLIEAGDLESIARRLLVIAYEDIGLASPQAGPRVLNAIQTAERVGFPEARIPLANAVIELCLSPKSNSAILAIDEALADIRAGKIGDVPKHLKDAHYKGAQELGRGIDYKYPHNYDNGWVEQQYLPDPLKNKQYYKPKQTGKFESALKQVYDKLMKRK
T7 sequence 2: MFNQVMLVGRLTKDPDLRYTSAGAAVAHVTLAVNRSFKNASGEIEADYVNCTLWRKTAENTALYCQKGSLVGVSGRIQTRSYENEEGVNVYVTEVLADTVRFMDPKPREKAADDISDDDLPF


How the values were obtained:
[1] = biological target: T1, Bacillus subtilis RarA (replication …); test: native gel or EMSA
[2] = biological target: T2, Bacillus subtilis RarA K51A (Walker A …); test: native gel or EMSA
RarA K51A;SsbA = biological target: T3, RarA K51A;SsbA; test: EMSA
RarA;SsbA = biological target: T4, RarA;SsbA; test: EMSA
SsbB = biological target: T5, SsbB; test: EMSA
RarA = biological target: T6, RarA; test: EMSA
[3] = biological target: T7, RarA;SsbBA chimera (SsbB*); test: EMSA

Binder	binding result [1]	binding result [2]	binding result (RarA K51A;SsbA)	binding result (RarA;SsbA)	Kd (SsbB) [nM]	Kd (RarA) [nM]	binding result [3]
Bacillus subtilis SsbA (single stranded binding protein A) (natural protein, B. subtilis, UniProt P37455 1-172, looked up) MLNRVVLVGRLTKDPELRYTPNGAAVATFTLAVNRTFTNQSGEREADFINCVTWRRQAENVANFLKKGSLAGVDGRLQTRNYENQQGQRVFVTEVQAESVQFLEPKNGGGSGSGGYNEGNSGGGQYFGGGQNDNPFGGNQNNQRRNQGNSFNDDPFANDGKPIDISDDDLPF	binds	binds					
SsbBA chimera (SsbB with the last 9 terminal acidic residues of SsbA) (other, B. subtilis, UniProt C0SPB6 1-113, looked up) MFNQVMLVGRLTKDPDLRYTSAGAAVAHVTLAVNRSFKNASGEIEADYVNCTLWRKTAENTALYCQKGSLVGVSGRIQTRSYENEEGVNVYVTEVLADTVRFMDPKPREKAADDISDDDLPF	binds						
91-nt ssDNA (F1) (ssDNA) DNA: TATAAAAAAAGCCAAGCTTGCATGCCTGCAGGTCGACTCTAGAGGATCCCCGGGTACCGAGCTCGAATTCACTGGCCGTCGTTTTACAACG			binds	binds	~6	~12	binds
